{
  "source": "the nanobody polyreactivity screen of Harvey et al. (2022)",
  "data": [
    {"test": "yeast display, Sf9 membrane polyspecificity reagent, FACS + sequencing; frameworks hold sequencing errors", "how_it_was_run": "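Synthetic nanobody libraries on Saccharomyces cerevisiae BJ5465 were galactose-induced for 36–48 hours, stained 1 hour at 4 °C with 10% biotinylated, detergent-solubilized Sf9 membrane reagent and enriched on streptavidin microbeads. FACS then separated cells into low and high (top ~1%) gates by anti-HA (expression) and streptavidin (reagent binding) fluorescence. Genes were colony-PCR amplified, MiSeq 2 × 250 sequenced and CDR-length filtered. A clone's polyreactivity label is that of its gate of origin.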", "values": [
      {"sequence": "QVQLVESGGGLVQAGGSLRLSCAASGSIFGGNAMGWYRQAAGKERELVAAITQSGGRTYYADSVKGRFTISRDNAKNTVYLQMNSLKPEDTAVYYCNRVYKSQTTDSFPLSYYYWGQGTQVTVSS", "polyreactivity (PSR sort gate)": "high polyreactivity"},
      {"sequence": "QVQLVESGGGLVQAGGSLRLSCAASGSIFGGYAMGWYRQAPGKERELVARITDRGGSTDYADSVKGRFTISRDNAKNTVYLQMNSLTPEDTAVYYCAKRGDRYEKRPRDYWGQGTQVTVSS", "polyreactivity (PSR sort gate)": "low polyreactivity"},
      {"sequence": "QVQLVESGGGLVQAGGSLRLSCAASGSIFGGYDMGWYRQAPGKESELVASISGSSSTYYADSVKGRFTISRDNAKNTVYFQMNSLKPEDTAVYYCAVDYHQAWPSADYWFEYDYWGQGTQVTVSS", "polyreactivity (PSR sort gate)": "low polyreactivity"},
      {"sequence": "QVQLVESGGGLVQAGGSLRLSCAASGSIFGGYGMGCYRQAPGKERALVAAITSGSSTYYADSVKGRFTISRDNAKKTVYLQMPSLTPEDTAGYYCNADYAYYRDVYSPYDSWGQGTQVTVSS", "polyreactivity (PSR sort gate)": "low polyreactivity"},
      {"sequence": "QVQLVESGGGLVQAGGSLRLSCAASGSIFGGYGMGWYRQAPGKERELVAAITSGSSTYYADSVKGRFTISRDNAKNTVYLQMNSLKAEDTAVYYCAARPYTHSAYEGDYWGRGTQVTVSS", "polyreactivity (PSR sort gate)": "low polyreactivity"},
      {"sequence": "QVQLVESGGGLVQAGGSLRLSCAASGSIFGGYGMGWYRQAPGKERELVAAITSGSSTYYADSVKGRFTISRDNAKNTVYLQMNSLKPEDTAVYNCAARPYPHSAYEGDYWGRGTQVTVSS", "polyreactivity (PSR sort gate)": "low polyreactivity"},
      {"sequence": "QVQLVESGGGLVQAGGSLRLSCAASGSIFGGYTMGWYRQAPGKERKLVAAISRRGGNTYYADSVKGRFTISRDNAKNTVYLLMNSLKPEDTAVYYCAVRWPSARIPVKLDYWGQGTQVTVSS", "polyreactivity (PSR sort gate)": "high polyreactivity"},
      {"sequence": "QVQLVESGGGLVQAGGSLRLSCAASGSIFGINAMGWYRQAPGKERELVAAISGSTSRTYYADSVKGRFTISRDNAKNTVYLQMNSLKPEDTAVYYCAVVGLRSVTRRSYYWGQGTQVTVSS", "polyreactivity (PSR sort gate)": "high polyreactivity"},
      {"sequence": "QVQLVESGGGLVQAGGSLRLSCAASGSIFGISTMGWYRQAPGKERELVAAITSGDRTSYADSVKGRFTISRDNAKNTVYLQMNTLKPEDTAVYYCARDYYSYRYLRYDYWGQGTQVTVSS", "polyreactivity (PSR sort gate)": "low polyreactivity"},
      {"sequence": "QVQLVESGGGLVQAGGSLRLSCAASGSIFGIYAMGWYRQAPGKERELVAAISWSGGSTYYADSVKGRFTISRDNAKNTVYLQMNSLKPEDTAVYYCNADVQLFGWWYGMDYWGQGTQVTVSS", "polyreactivity (PSR sort gate)": "high polyreactivity"},
      {"sequence": "QVQLVESGGGLVQAGGSLRLSCAASGSIFGKNAMGWYRQAPGKERELVAAISFSGGSTYYADSVKGRFTISRDNAKNTVYLQMNSLKPEDTAVYYCAARKYSWYPAGGYDYWGQGTQVTVSS", "polyreactivity (PSR sort gate)": "high polyreactivity"},
      {"sequence": "QVQLVESGGGLVQAGGSLRLSCAASGSIFGLYAMGWYRPAPGKEREFVATISKSGVSTYYADSVKGRFTISRDNAKNTVYLQMNSLKPEDTALYYCNADISRDNDFDYWGQGTQVTVSS", "polyreactivity (PSR sort gate)": "low polyreactivity"},
      {"sequence": "QVQLVESGGGLVQAGGSLRLSCAASGSIFGLYAMGWYRQAAGKERELVAAISASGGSTYYADSVKGRFTISRDNAKNTVYLQMNSLKPEDTAVYYCAVKWRGGPQRGFNYWGQGTQVTVSS", "polyreactivity (PSR sort gate)": "high polyreactivity"},
      {"sequence": "QVQLVESGGGLVQAGGSLRLSCAASGSIFGLYAMGWYRQAPGKERELVAAINQSGGSTSYADSVKGRFTISRDNAKNTVYLQMNSLKPEDTAVYYCAADSAFYTGSDYGWSDYDYWGQGTQVTVSS", "polyreactivity (PSR sort gate)": "low polyreactivity"},
      {"sequence": "QVQLVESGGGLVQAGGSLRLSCAASGSIFGLYAMGWYRQAPGKERELVAAITWSSGNTYYADSVKGRFTISRDNAKNTVYLQMYSLKPEDTAVYYCAATSVSISYRYDYWGQGTQVTVSS", "polyreactivity (PSR sort gate)": "high polyreactivity"},
      {"sequence": "QVQLVESGGGLVQAGGSLRLSCAASGSIFGNAMGWYRPAPGKERELVAAISRRGGRTYYADSVKGRFTISRDNAKNTVYLQMNSLKPEDTAVYYCANTAKTWGWWLRGYGYWGQGTQVTVSS", "polyreactivity (PSR sort gate)": "high polyreactivity"},
      {"sequence": "QVQLVESGGGLVQAGGSLRLSCAASGSIFGNAMGWYRQAPGKEREFVAAISSSGSSTYYADSVKGRFTISRDNAKNTVYLQMNSLKPEDTAVYYCANRRRSAAPKYDYWGQGTQVTVSS", "polyreactivity (PSR sort gate)": "high polyreactivity"}
    ]}
  ]
}
